According to the supplement of paper PMC9170038:

System: MS2 coat protein
Experiment: apparent KD of MS2 coat protein; designed switch direction (-1 OFF switch, 1 ON switch): -1; higher = weaker reporter binding
Procedure, shortened: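 Three titration conditions were used: no input, 200 uM small-molecule ligand, and an oligonucleotide input. In each, SNAP-549-labelled MS2 coat protein was raised from 0.7 or 1.5 nM, doubling, to 3 µM over designed RNA switches transcribed on Illumina chips by stalled E. coli RNA polymerase. Curve fits of normalised cluster fluorescence gave values whose per-design median over clusters is the apparent KD.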

[1] = input ligand: microRNA oligo, concentration not stated
[2] = Eterna round: R95, input ligand: FMN 200 uM
[3] = Eterna round: R95, input ligand: microRNA oligo, concentration not stated
[4] = Eterna round: R95, input ligand: none

| Sequence | apparent KD of MS2 coat protein (input ligand: FMN 200 uM) | apparent KD of MS2 coat protein [1] | apparent KD of MS2 coat protein (input ligand: none) | apparent KD of MS2 coat protein [2] | apparent KD of MS2 coat protein [3] | apparent KD of MS2 coat protein [4] |
| --- | --- | --- | --- | --- | --- | --- |
| UUUUAACAUGAGGAUCACCCAUGUGAGGAUAUCGAAAUUUAUAUUAAUAUUUAUAUUACGAGAAGGCACAUUUU [JMF 58] (Eterna round: R96, puzzle: Exclusion 1) | 103 nM | 55.3 nM | 62.9 nM |  |  |  |
| AGACGUCAAGUCAGGAUAUAGAGGCAAGUCCACCGCUAGAAGGGACAUGAGGAUCACCCAUGUAGGGUUUAGCU [Zainsoed] (puzzle: Brourd's mod of Exclusion 4) |  |  |  | 101 nM | 157 nM | 135 nM |
| GUUUUGUGAGGAUAUCCCUAUCAUCUAGCUGACUAGAUGGUGGAGAAGGCACAUGAGGAUCACCCAUGUGGGAG [Eternabot (L1) Solution 3] (Eterna round: R97, puzzle: Exclusion 4) | 111 nM |  | 90.1 nM |  |  |  |
| UUUAAUUUUUUUUUUUUACAAGCUUUUUGCUCGUCUUAUACAUGAGGAUCACCCAUGUAAAUGGGAAGUAAAUUAUC [JMF 50] (puzzle: Sensor v3, turn-off variant 2) |  |  |  | 59.5 nM | 207 nM | 93.1 nM |
| CCGGAAAUAGAGGAUAUCGUACUGGAUACAGUACGAGAAGGCUAUACAUGAGGAUCACCCAUGUGUCCUACCGG [Fiskers Ex 6 - 61] (puzzle: Exclusion 6) |  |  |  |  | 16.1 nM |  |
| UACAGACAUGAGGAUCACCCAUGUUAGGAUAUGCAGAACUCUACUCACGUGGCGUUUAGCAGAAGGAAUACGGG [Eternabot (L1) Solution 68] (Eterna round: R97, puzzle: Exclusion 1) | 122 nM |  | 74.6 nM |  |  |  |
| AGUCGGUCAGGAUAUGCAGACGUAGACAUGAGGAUCACCCAUGUAACGUGGGCCUGGUUUGUAGAAGGGACGAGCA [EX5 #84] (Eterna round: R97, puzzle: Exclusion 5) | 47.9 nM |  | 42.4 nM |  |  |  |
| UAUAUAUAGUAAGGAUAUGUAUUAAUUGUAUAAACAGAAGGUACUGACAUGAGGAUCACCCAUGUUUUAGUGUGGGCAUGUAGA [JMF's solution 81] (Eterna round: R96, puzzle: Exclusion NG 1) |  | 71.7 nM |  |  |  |  |
| ACAAGCUUUUGCUCGUCUUACAUGAGGAUCACCCAUGUCGGGAGCAUGCAUACGUCCAGCAUCUGGACCGUAGCAGA [-25.7, -49.8 kcal, 25% A] (Eterna round: R97, puzzle: Sensor, turn-off variant 1) | 16.3 nM |  | 18.1 nM |  |  |  |
| GUUAACGAAGAGGAUAUAUGAUAUCAAAGCUUCAUAGAAGGCUUCACAUGAGGAUCACCCAUGUGAUCUUCUUU [jl-ex6-4.09 ViennaUCT mod] (Eterna round: R97, puzzle: Exclusion 6) | 44.2 nM |  | 15.1 nM |  |  |  |
| UAAAAGUGAGGAUAUACGUGAAAUCCGCCAGGCGGAGAUCUACAUGAGGAUCACCCAUGUAGAAGGCACGGAAU [EX2 A.13] (Eterna round: R97, puzzle: Exclusion 2) | 15.8 nM |  | 14 nM |  |  |  |
| GACUUGUCAGGAUAUCUUACAUUUGCAUCGUAGUUACCGUUGGAGAAGGGACAUGAGGAUCACCCAUGUUUGGC [tap-tap-tappy24] (Eterna round: R97, puzzle: Exclusion 4) | 26.6 nM |  | 28.9 nM |  |  |  |
| CGAUAUAACGUAGGAUAUCUGAGAAAUAGAUGAAGAGAAGGACGACAUGAGGAUCACCCAUGUGAUCUAUCAAUAUUAUACAUG [Prohibition 96 - Jieux - Exclusion NG 1] (Eterna round: R96, puzzle: Exclusion NG 1) | 722 nM | 694 nM | 604 nM |  |  |  |
| CUUCUCGUUGUGAGGAUAUCGUUUUCGUCUCGGAUCGAGAAGGCACAUGAGGAUCACCCAUGUUUGUUGUGGUU [JR_BMOE4_Sub090] (puzzle: Brourd's mod of Exclusion 4) |  |  |  |  | 87.9 nM |  |
| CAGAAACAUGAGGAUCACCCAUGUGAGGAUAUGAAAAAGAAAAGAAAAGAAAGAAGAAUCAGAAGGCACAAAGG [salish99-ex1_r3_081] (puzzle: Exclusion 1) |  |  |  | 39.9 nM | 30.8 nM | 38.5 nM |
| CCAGCGUGUGUGAGGAUAUGCUGGUCCUUGGAUCAGCAGAAGGCACAUGAGGAUCACCCAUGUGAGUACGUUGG [JL bmx4 3.34] (puzzle: Brourd's mod of Exclusion 4) |  |  |  |  | 15 nM |  |
| ACAAGCUUUUUGCUCGGCUACAUGAGGAUCACCCAUGUUGUGUGUUAUUGUUUUUGAUUGUUCGUGCGCAGCAGGUA [JR_SV3TOV1_Sub073] (puzzle: Sensor v3, turn-off variant 1) |  |  |  | 71 nM | 29.4 nM | 112 nM |
| GGAUCUUGGGUCAGGAUAUGCUGAUAGUUAUGUCAGCAGAAGGGACAUGAGGAUCACCCAUGUGCUUGGUUUUG [Magic-17] (Eterna round: R96, puzzle: Brourd's mod of Exclusion 4) | 40.9 nM | 12.7 nM | 17.2 nM |  |  |  |

| Sequence | apparent KD of MS2 coat protein (input ligand: FMN 200 uM) | apparent KD of MS2 coat protein [1] | apparent KD of MS2 coat protein (input ligand: none) | apparent KD of MS2 coat protein [2] | apparent KD of MS2 coat protein [3] | apparent KD of MS2 coat protein [4] |
| --- | --- | --- | --- | --- | --- | --- |
| AGUACUAACUCGAAAGUGUUAGUACAAUAAGCUUGUGAAACAUGAGGAUCACCCAUGUCCUCAUAAGCUCGUCUUAU [salish99_TOv2_r3_022] (puzzle: Sensor v3, turn-off variant 2) |  |  |  | 15.7 nM | 739 nM | 15.3 nM |
| GUCAACGCAGGAUAUUAGAACUUUUACAUGAGGAUCACCCAUGUUAAUUGGGUCUAAGAAUAAGAAGGGCGAUGAA [JR_Ex5_Sub011] (Eterna round: R97, puzzle: Exclusion 5) | 15.8 nM |  | 14 nM |  |  |  |
| AGAUCUAGGACAGGAUAUAUGGAUGUCUUCAUCGAAGAUGAAGACAUCACAUGAGGAUCACCCAUGUAGAAGGGUCCUAGAUCA [Omei Exc(NG) 2Av2] (Eterna round: R96, puzzle: Exclusion NG 2) | 11.9 nM | 13.5 nM | 15.6 nM |  |  |  |
| GGUCUUCAAGUCAGGAUAUCGUCUAGUCGGUCUGGCGAGAAGGGACAUGAGGAUCACCCAUGUCGUCUCAUCAG [Ex4 #14] (Eterna round: R97, puzzle: Brourd's mod of Exclusion 4) | 30.6 nM |  | 19.9 nM |  |  |  |
| GUCAGCUCGUCAGGAUAUACAUGCGUGCUUCGGCACGUAUGAUAGAUCACAUGAGGAUCACCCAUGUAGAAGGGACGAGCUGAC [ENG2/4-B1] (Eterna round: R96, puzzle: Exclusion NG 2) | 13.2 nM | 9.92 nM | 12.5 nM |  |  |  |
| UCGGCGCGAGGAUAUGCGGCUGGUGCUUCGGGCCCUCGCGUACAUGAGGAUCACCCAUGUAGAAGGCGCGCCGC [Apr-15 SS2-43] (puzzle: Exclusion 2) |  |  |  |  | 20.5 nM |  |
| CUCCUACAUGAGGAUCACCCAUGUCAGGAUAUCUCAGUGGCGCCUAAAUGUGCCACCCAGAGAAGGGACGUGCA [Zainceve] (puzzle: Exclusion 1) |  |  |  |  | 12.3 nM |  |
| AAAGAAGAGAGAAAAUAACACAUGAGGAUCACCCAUGUGAGAUGUUGAGGGUGAUACAGGCUUUUUGCUCGUCUUAU (puzzle: Sensor v3, turn-off variant 1) |  |  |  | 231 nM | 283 nM | 321 nM |
| AAUAACAGAGGAUAUACUAAAAUAUGAAUAAAAUAAAUAAAACAUGAGGAUCACCCAUGUAGAAGGCUGAAUAA [JMF's Not so obvious solution 7] (puzzle: Exclusion 2) |  |  |  | 26 nM | 29.3 nM | 25 nM |
| UAGAUGGGAGGAUAUGCAUAGAUACAGAUUCAUGUAGUGCUACAUGAGGAUCACCCAUGUAGAAGGCCCGUCUU [JL-ex2-2.20 Mayanne mod] (Eterna round: R96, puzzle: Exclusion 2) | 208 nM | 22.1 nM | 24.1 nM |  |  |  |
| GAAAAGGUAGGAUAUACGAGAAAAAAGGGUAGAAAAAAAACACAUGAGGAUCACCCAUGUAGAAGGACCAAAAG [salish99_ex2_r3_029] (puzzle: Exclusion 2) |  |  |  | 35.5 nM | 23.1 nM | 21.3 nM |
| UAAUUAAGUGUGAGGAUAUGCUGGUCCUUGGAUCAGCAGAAGGCACAUGAGGAUCACCCAUGUAAAUUAUUUAU [Mat - Exclusion 4 - JL Mod - D60] (puzzle: Brourd's mod of Exclusion 4) |  |  |  |  | 73.2 nM |  |
| GAUCCGUUAGGAUAUACAGGAUUCACGCCUGAGUGAAUGUAGUAGAAGGAACAUGAGGAUCACCCAUGUGGUAU [Eternabot (L1) Solution 85] (Eterna round: R97, puzzle: Exclusion 4) | 83.2 nM |  | 40.5 nM |  |  |  |
| UCGUGUAUAGAGGAUAUAUUAUUUAUUUAAACAAUAGAAGGCUAAACAUGAGGAUCACCCAUGUAUUUGGUUUU [JR_Ex6_Sub052] (Eterna round: R97, puzzle: Exclusion 6) | 59.9 nM |  | 21.8 nM |  |  |  |
| GAAAAGGUAGGAUAUACGAAAAAAAAGGGUAGAAAAAAAAAACAUGAGGAUCACCCAUGUAGAAGGACCAAAAG [salish99_ex2_r3_059] (puzzle: Exclusion 2) |  |  |  | 134 nM | 26.6 nM | 13.7 nM |
| UUUAGUUCAGGAUAUGUAGAAUUUAACAUGAGGAUCACCCAUGUAGAUCCUGAAUUAACUACAGAAGGGAACAUUU [Exclusion 5: 2:a mod2] (Eterna round: R97, puzzle: Exclusion 5) | 69.1 nM |  | 15.2 nM |  |  |  |
| CUCGUGUAAGGAUAUAUGAGUCACGGAAAUAAACCGUGAAGAUAGAAGGUACAUGAGGAUCACCCAUGUAAAAC [Mod of Anonveat 4 - Jieux - Exclusion 4] (Eterna round: R97, puzzle: Exclusion 4) | 124 nM |  | 99.4 nM |  |  |  |
